US20240067932A1, “METHODS AND COMPOSITIONS FOR GENERATING HEMOGENIC ENDOTHELIAL CELLS FROM PLURIPOTENT STEM CELLS” (Trailhead Biosystems Inc., priority 2022, published 2024)

Columns and labels:
[1] = test system: early mesoderm progenitors; assay: Factor criticality / dynamic profile analysis of gene expression on removal of a finalized effector; type: cell-based, human; design: expression level of GATA2 / expression level of TAL1 / expression level of CD44 / expression level of KDR / expression level of CD34 / expression level of CD31: unit not given here
[2] = test system: early mesoderm progenitors; assay: 8-factor HD-DoE experiments optimized for maximum GATA2 expression (qPCR, partial least squares models); type: cell-based, human; conditions: fifth model, FIG. 6; factors VPA, SCF, BMP4, EFG, FLT3L, Arginine, Retinoic Acid, VEGF
[3] = model FIG. 11, named factor removed

B1: BMP4: BMP pathway agonist (protein, UniProt P12644 293-408, looked up)
Bone morphogenetic protein 4: SPKHHSQRARKKNKNCRRHSLYVDFSDVGWNDWIVAPPGYQAFYCHGDCPFPLADHLNSTNHAIVQTLVNSVNSSIPKACCVPTELSAISMLYLDEYDKVVLKNYQEMVVEGCGCR
Question: For B1, which “expression level of GATA2” value ([1]; model FIG. 11 (Retinoic Acid, BMP4, VEGF), factor present) is on record?
Answer: 519

Question: What about the “expression level of CD31” value ([1]; model FIG. 11, factor present) of the same molecule?
Answer: 768

Question: And the “expression level of CD34” value ([1]; model FIG. 11, factor present)?
Answer: 3971

Question: What about the “expression level of FLI1 (Fill [sic])” value ([1]; model FIG. 11, factor present) of the same molecule?
Answer: 3250

Question: And the “expression level of KDR” value ([1]; model FIG. 11, factor present)?
Answer: 17667

Question: And the “expression level of TAL1” value ([1]; model FIG. 11, factor present)?
Answer: 490

Question: What about the “expression level of CD31” value [1, 3] of the same molecule?
Answer: 682

Question: And the “expression level of CD34” value [1, 3]?
Answer: 3455

Question: And the “expression level of FLI1 (Fill [sic])” value [1, 3]?
Answer: 2213

Question: What about the “expression level of GATA2” value [1, 3] of the same molecule?
Answer: 338

Question: And the “expression level of KDR” value [1, 3]?
Answer: 10025

Question: And the “expression level of TAL1” value [1, 3]?
Answer: 422

Question: And the “factor contribution (maximum expression of GATA2)” value [2]?
Answer: 31
